Where two headings read alike, the source gives them in different places.
Columns and labels:
[1] = biological target: T1, HSF1-WT monomer (SEC peak 3) (human, UniProt Q00613 1-529); test: fluorescence polarization
native gel or EMSA = biological target: the molecule itself; test: native gel or EMSA
HSF1-ΔTAD = HSF1-ΔTAD (human, UniProt Q00613 1-409); test: fluorescence polarization
[2] = biological target: HSF1-WT trimer/oligomer (SEC peak 1) (human, UniProt Q00613 1-529); test: fluorescence polarization
HSF1-ΔLZ4-TAD [3] = biological target: T2, HSF1-ΔLZ4-TAD (human, UniProt Q00613 1-383); test: fluorescence polarization
[4] = biological target: T1, HSF1-WT monomer (SEC peak 3); test: fluorescence polarization; remark: listed apart in the source
HSF1-LZ4m (HSF1-CT) = HSF1-LZ4m (HSF1-CT) (human, UniProt Q00613 1-529, M391K;L395P;L398R); test: fluorescence polarization
HSF1-DBD = HSF1-DBD (human, UniProt Q00613 1-123); test: fluorescence polarization
HSF1-ΔLZ4-TAD [5] = biological target: T2, HSF1-ΔLZ4-TAD; test: fluorescence polarization; remark: listed apart in the source
HSF1-ΔLZ1-3 (HSF1-CM) = HSF1-ΔLZ1-3 (HSF1-CM) (human, UniProt Q00613 1-129+204-529, internal_change); test: fluorescence polarization

HSF1-WT trimer/oligomer (SEC peak 1), sequence (Q00613 whole entry): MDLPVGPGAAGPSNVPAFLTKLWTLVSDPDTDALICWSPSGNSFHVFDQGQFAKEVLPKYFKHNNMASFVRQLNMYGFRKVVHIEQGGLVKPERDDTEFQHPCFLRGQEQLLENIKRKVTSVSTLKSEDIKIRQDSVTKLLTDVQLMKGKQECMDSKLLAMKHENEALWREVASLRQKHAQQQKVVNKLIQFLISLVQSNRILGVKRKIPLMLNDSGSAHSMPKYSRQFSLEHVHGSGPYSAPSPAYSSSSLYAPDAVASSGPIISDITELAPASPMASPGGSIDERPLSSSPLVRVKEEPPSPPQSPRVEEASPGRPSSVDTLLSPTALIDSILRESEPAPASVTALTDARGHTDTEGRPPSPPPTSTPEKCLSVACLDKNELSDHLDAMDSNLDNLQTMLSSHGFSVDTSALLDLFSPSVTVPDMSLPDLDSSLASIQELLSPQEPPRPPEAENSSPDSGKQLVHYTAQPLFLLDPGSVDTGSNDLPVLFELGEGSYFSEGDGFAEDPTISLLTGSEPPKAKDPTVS

B1: mHSE (mutant HSE) (dsDNA)
DNA 1: CCTGGCGTAGTCCCCGCCTGGC
DNA 2: GCCAGGCGGGGACTACGCCAGG
B1 was tested, and the Kd [1] was 84.8 ± 14.2 nM.

B2: HSF1-LZ4mutant (LZ4m), constitutively trimeric/ oligomeric (CT) (natural protein, human, UniProt Q00613 1-529, looked up)
chain: MDLPVGPGAAGPSNVPAFLTKLWTLVSDPDTDALICWSPSGNSFHVFDQGQFAKEVLPKYFKHNNMASFVRQLNMYGFRKVVHIEQGGLVKPERDDTEFQHPCFLRGQEQLLENIKRKVTSVSTLKSEDIKIRQDSVTKLLTDVQLMKGKQECMDSKLLAMKHENEALWREVASLRQKHAQQQKVVNKLIQFLISLVQSNRILGVKRKIPLMLNDSGSAHSMPKYSRQFSLEHVHGSGPYSAPSPAYSSSSLYAPDAVASSGPIISDITELAPASPMASPGGSIDERPLSSSPLVRVKEEPPSPPQSPRVEEASPGRPSSVDTLLSPTALIDSILRESEPAPASVTALTDARGHTDTEGRPPSPPPTSTPEKCLSVACLDKNELSDHLDAKDSNPDNRQTMLSSHGFSVDTSALLDLFSPSVTVPDMSLPDLDSSLASIQELLSPQEPPRPPEAENSSPDSGKQLVHYTAQPLFLLDPGSVDTGSNDLPVLFELGEGSYFSEGDGFAEDPTISLLTGSEPPKAKDPTVS
B2: binds (native gel or EMSA).

B3: HSE (canonical three-site) (dsDNA)
DNA 1: CCTGGAATATTCCCGAACTGGC
DNA 2: GCCAGTTCGGGAATATTCCAGG
With B3 the Kd (HSF1-ΔTAD) was 60.3 ± 1.13 nM, the Kd [2] was 17.1 ± 6.28 nM and the Kd (HSF1-ΔLZ4-TAD [3]) was 22.6 ± 1.36 nM. It also gave a Kd [4] of 56.7 ± 4.62 nM, a Kd (HSF1-LZ4m (HSF1-CT)) of 25.1 ± 8.09 nM and a Kd (HSF1-DBD) of 85.3 ± 6.29 nM. The Kd (HSF1-ΔLZ4-TAD [5]) was 12.9 ± 0.335 nM, the Kd [1] was 7.98 ± 1.43 nM and the Kd (HSF1-ΔLZ1-3 (HSF1-CM)) was 6.57 ± 1.39 nM.
